Patent US20260116951A1 (DUCENTIS BIOTHERAPEUTICS, published 2026)

Key:
Human PBMCs = target: T1, Human PBMCs; assay: Flow cytometry, % binding on human PBMCs gated on live cells, 1 hour at 37 C, anti-human secondary antibody; the target protein on the cells is not named
T1 construct: No receptor was assigned; also called human PBMCs, gated on live cells
Procedure: PBMC cells were re-suspended with a density of 0.1 million cells per assay point, with 50 μL FACS buffer (1×PBS+2% FBS). Dilutions of huCD200-Fc in 50 μL were added, starting at 10 μg/mL with 3-fold dilutions up to 10 concentrations with FACS buffer, and incubated for 1-hour at 37° C. At the end of each time point, cells were collected and washed (addition of 200 μL FACS buffer and centrifugation at 1400 RPM). 10 μg/mL of anti-human secondary antibody (Abcam Ab98596) was added together with excess Fc block (Innovex Biosciences no. NB309), and incubated for 30 minutes at 4° C. Cells were washed post incubation and stained to check viability (1 μL dye per million cells per mL 1×PBS, ThermoFisher C34557A) for 20 minutes at 4° C. Cells were washed and fixed with Fixation buffer (100 μL per test, BD Sciences 554655) at 4° C. for 20 minutes. Post incubation, cells were washed and the pellet was re-suspended in FACS buffer (100 μL per test) for data acquisition on the flow cytometer.

[1] = target: T2, Recombinant Human CD200R, His-tagged (Creative Biomart CD200R1-320H) (human, UniProt Q8TD46 27-266); assay: SPR
T2 construct: Bought; also called human CD200 receptor; not shown: His tag
T2 sequence (looked up): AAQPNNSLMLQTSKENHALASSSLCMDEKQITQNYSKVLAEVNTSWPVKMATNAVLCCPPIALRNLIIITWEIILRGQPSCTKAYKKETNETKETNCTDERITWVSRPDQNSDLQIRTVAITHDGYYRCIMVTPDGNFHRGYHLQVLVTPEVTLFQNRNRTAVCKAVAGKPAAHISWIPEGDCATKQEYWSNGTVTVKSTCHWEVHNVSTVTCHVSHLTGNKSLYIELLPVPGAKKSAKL
Text: (§1) Curves obtained were fitted to 1:1 Langmuir binding model by setting Rmax and RI as local parameters. Rate equations using standard parameters (e.g. ligand concentration, time) were used for iterative curve fitting. […] Means of 2 experiments carried out on the same day are shown with standard deviation. Residue numbering for CD200 proteins refers to the pre-protein, containing a signal peptide which is cleaved during insertion into the endoplasmic reticulum.

[2] = target: T2, Recombinant Human CD200R, His-tagged …; assay: SPR, CD200R flowed over immobilized CD200-Fc, 25 C, 1:1 fit; reference is wild-type CD200-Fc DS-155
Procedure: (§2) For human CD200 constructs: anti-human Fc (GE Healthcare) was covalently immobilized on a BIAcore CM5 sensor chip (Cytiva, BR100530) by amine coupling using a Cytiva kit (BR100839) following the manufacturer's instructions, targeting immobilization of 8,000-11,000 RU. CD200-Fc proteins were diluted to 0.5 μg/mL to 4 μg/mL in running Buffer (1×HBS-EP+pH7.4 (Cytiva BR100669), HEPES Buffered Saline pH 7.4 containing 3 mM EDTA and 0.05% v/v Surfactant P20) and flowed for 25 to 100 seconds at 10 μL/min over the immobilized Anti-Human IgG Fc, with a stabilization time of 60 seconds. Between 35 and 250 RUs of CD200-Fc were captured, with higher RUs used for cynomolgus CD200R binding experiments. […] Analysis temperature was 25° C. This was followed by regeneration of the surface with 30-90 second pulse of 3M MgCl₂ flowed at […] flow rate followed by stabilization of the surface with 60 second flow of running buffer.
as §1

[3] = target: T2, Recombinant Human CD200R, His-tagged …; assay: SPR (BIAcore T200), CD200-Fc captured on anti-human Fc, CD200R flowed, 25 C, 1:1 fit
Procedure: The experiments were performed on a GE Healthcare BIAcore T200. Human, cynomolgus and mouse CD200R proteins were purchased from Creative Biomart (CD200R1-320H, CD200R1-3483C, CD200R1-3280M). All measurements were performed in duplicate.
For human CD200 constructs: anti-human Fc (GE Healthcare) was covalently immobilized on a BIAcore CM5 sensor chip (Cytiva, BR100530) by amine coupling using a Cytiva kit (BR100839) following the manufacturer's instructions, targeting immobilization of 8,000-11,000 RU. CD200-Fc proteins were diluted to 0.5 μg/mL to 4 μg/mL in running Buffer (1×HBS-EP+pH7.4 (Cytiva BR100669), HEPES Buffered Saline pH 7.4 containing 3 mM EDTA and 0.05% v/v Surfactant P20) and flowed for 25 to 100 seconds at 10 μL/min over the immobilized Anti-Human IgG Fc, with a stabilization time of 60 seconds. […]
For mouse CD200 constructs, muCD200R-Fc (Creative Biomart CD200R1-458M) diluted to 1 μg/mL in running buffer was flowed over the immobilized Anti-Human IgG Fc, with CD200 monomers serially diluted and flowed over captured CD200R. […] Data analysis: experimental sensorgrams were analyzed in BIAevaluation software (GE Healthcare). […] Closeness of fit was determined by algorithms provided by the manufacturer in the BIAevaluation software, and data accepted if the Chi² value was less than 10% of Rₘₐₓ, and the U value was less than or equal to 15.

[4] = target: T3, Human CD200R, full length, on transduced U937 cells (U937-CD200R) (human, UniProt Q8TD46 25-348); assay: cell-based or functional assay
T3 sequence (looked up): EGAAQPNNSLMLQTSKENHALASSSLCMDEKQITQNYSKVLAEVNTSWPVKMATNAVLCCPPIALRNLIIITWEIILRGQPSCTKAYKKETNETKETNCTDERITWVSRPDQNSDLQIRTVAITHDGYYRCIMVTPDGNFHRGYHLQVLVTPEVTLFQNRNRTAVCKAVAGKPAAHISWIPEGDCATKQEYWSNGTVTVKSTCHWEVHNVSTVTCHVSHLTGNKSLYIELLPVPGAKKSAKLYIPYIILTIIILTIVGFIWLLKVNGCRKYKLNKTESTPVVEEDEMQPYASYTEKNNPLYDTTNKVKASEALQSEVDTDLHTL

[5] = target: T2, Recombinant Human CD200R, His-tagged …; assay: SPR (BIAcore), DS-118 captured (0.5 ug/mL), HuCD200R1 flowed at 100 nM to 6.25 nM, 25 C, 1:1 Binding model, run 2
Procedure: as §2
For mouse CD200 constructs, muCD200R-Fc (Creative Biomart CD200R1-458M) diluted to 1 μg/mL in running buffer was flowed over the immobilized Anti-Human IgG Fc, with CD200 monomers serially diluted and flowed over captured CD200R. Other details were as above. Data analysis: experimental sensorgrams were analyzed in BIAevaluation software (GE Healthcare). The curves obtained were fitted to 1:1 Langmuir binding model by setting Rmax and RI as local parameters. Rate equations using standard parameters (e.g. ligand concentration, time) were used for iterative curve fitting. Closeness of fit was determined by algorithms provided by the manufacturer in the BIAevaluation software, and data accepted if the Chi² value was less than 10% of Rₘₐₓ, and the U value was less than or equal to 15.

B1: DS-118 (mutated human CD200-Fc fusion protein, K130Y, I131Y, IgG4 S228P Fc) (Fc fusion)
chain: QVQVVTQDEREQLYTPASLKCSLQNAQEALIVTWQKKKAVSPENMVTFSENHGVVIQPAYKDKINITQLGLQNSTITFWNITLEDEGCYMCLFNTFGFGYYSGTACLTVYVQPIVSLHYKFSEDHLNITCSATARPAPMVFWKVPRSGIENSTVTLSHPNGTTSVTSILHIKDPKNQVGKEVICQVLHLGTVTDFKQTVNKGPPCPPCPAPEFLGGPSVFLFPPKPKDTLMISRTPEVTCVVVDVSQEDPEVQFNWYVDGVEVHNAKTKPREEQFNSTYRVVSVLTVLHQDWLNGKEYKCKVSNKGLPSSIEKTISKAKGQPREPQVYTLPPSQEEMTKNQVSLTCLVKGFYPSDIAVEWESNGQPENNYKTTPPVLDSDGSFFLYSRLTVDKSRWQEGNVFSCSVMHEALHNHYTQKSLSLSLGK
notes: also called mutated CD200-Fc; mutant CD200-Fc
In the case of B1, the EC50 (Human PBMCs) is reported as 0.29 µg/mL, the “fold increase in affinity from wild type” value [1] is reported as > 130 fold and the “fold increase in affinity from wild type (DS-155)” value [2] is reported as > 130 fold. For the same binder, the t½ [3] was 37.9 min, the “inhibition of LPS stimulated IL-6 release from U937-CD200R cells, IC50” value [4] was 0.01 µg/mL and the Kd [5] was 1.42 nM. The koff [5] was 0.000329 s⁻¹ and the kon [5] was 232000 M⁻¹ s⁻¹.
